Source: the supplement of paper PMC11246515
± gives the standard deviation of the averaged measurements.

Test: total protein half-life in vivo (active degradation + dilution); higher = more stable protein
[1] = E. coli NCM3722 delta-smpB, growth: N-lim chemostat, doubling time 6 h
[2] = wild type E. coli NCM3722, growth: P-lim chemostat, doubling time 12 h
[3] = wild type E. coli NCM3722, growth: C-lim chemostat, doubling time 3 h
[4] = wild type E. coli NCM3722, growth: C-lim chemostat, doubling time 6 h
[5] = wild type E. coli NCM3722, growth: C-lim chemostat, doubling time 12 h
[6] = E. coli NCM3722 delta-clpP delta-lon delta-hslV, growth: N-lim chemostat, doubling time 6 h
[7] = E. coli NCM3722 delta-clpP, growth: N-lim chemostat, doubling time 6 h
[8] = wild type E. coli NCM3722, growth: N-lim chemostat, doubling time 12 h
[9] = E. coli NCM3722 delta-lon, growth: N-lim chemostat, doubling time 6 h
[10] = wild type E. coli NCM3722, growth: P-lim chemostat, doubling time 6 h
[11] = E. coli NCM3722 delta-hslV, growth: N-lim chemostat, doubling time 6 h
[12] = wild type E. coli NCM3722, growth: N-lim chemostat, doubling time 6 h

| Sequence | total protein half-life in vivo [1] [h] | total protein half-life in vivo [2] [h] | total protein half-life in vivo [3] [h] | total protein half-life in vivo [4] [h] | total protein half-life in vivo [5] [h] | total protein half-life in vivo [6] [h] | total protein half-life in vivo [7] [h] | total protein half-life in vivo [8] [h] | total protein half-life in vivo [9] [h] | total protein half-life in vivo [10] [h] | total protein half-life in vivo [11] [h] | total protein half-life in vivo [12] [h] |
| --- | --- | --- | --- | --- | --- | --- | --- | --- | --- | --- | --- | --- |
| MNNSEGLKSFQQSLADLPQWVSERLLQQINQLTNYEPVIGIMGKTGVGKSSLCNALFAGDISPVSDVAACTREPLRFRLQVGDRYITLMDLPGVGESGARDTEYAALYREQLPRLDLVLWLIKADDRALTVDEHFYHQVIGEVYRHKVLFVISQSDKAEPTSGGGQLSTAQKQNISRKICLLHELFQPVHPVCAVSVRLQWGLKVMAERMIKCLPREATSPVVSQLHPSFRTTVVREQARSDFGETVGAVLDSISAFPLIPAPVRAVIQAVRTTVVSVARAVWDFFF | 3.51 | 6.63 |  |  |  |  |  |  |  |  |  |  |
| MTKTLLDGPGRVLESVYPRFLVDLAQGDDARLPQAHQQQFRERLMQELLSRVQLQTWTNGGMLNAPLSLRLTLVEKLASMLDPGHLALTQIAQHLALLQKMDHRQHSAFPELPQQIAALYEWFSARCRWKEKALTQRGLLVQAGDQSEQIFTRWRAGAYNAWSLPGRCFIVLEELRWGAFGDACRLGSPQAVALLLGDLLEKATQHLAESINAAPTTRHYYHQWFASSTVPTGGEHADFLSWLGKWTTADKQPVCWSVTQRWQTVALGMPRLCSAQRLAGAMLEEIFSVNLA | 3.06 | 12.1 ± 0.79 | 2.56 ± 0.43 | 5.83 ± 1.1 | 7.8 |  |  |  |  |  |  |  |
| MSKVRLAIIGNGMVGHRFIEDLLDKSDAANFDITVFCEEPRIAYDRVHLSSYFSHHTAEELSLVREGFYEKHGIKVLVGERAITINRQEKVIHSSAGRTVFYDKLIMATGSYPWIPPIKGSDTQDCFVYRTIEDLNAIESCARRSKRGAVVGGGLLGLEAAGALKNLGIETHVIEFAPMLMAEQLDQMGGEQLRRKIESMGVRVHTSKNTLEIVQEGVEARKTMRFADGSELEVDFIVFSTGIRPRDKLATQCGLDVAPRGGIVINDSCQTSDPDIYAIGECASWNNRVFGLVAPGYKMAQVAVDHILGSENAFEGADLSAKLKLLGVDVGGIGDAHGRTPGARSYVYLDESKEIYKRLIVSEDNKTLLGAVLVGDTSDYGNLLQLVLNAIELPENPDSLILPAHSGSGKPSIGVDKLPDSAQICSCFDVTKGDLIAAINKGCHTVAALKAETKAGTGCGGCIPLVTQVLNAELAKQGIEVNNNLCEHFAYSRQELFHLIRVEGIKTFEELLAKHGKGYGCEVCKPTVGSLLASCWNEYILKPEHTPLQDSNDNFLANIQKDGTYSVIPRSPGGEITPEGLMAVGRIAREFNLYTKITGSQRLAMFGAQKDDLPEIWRQLIEAGFETGHAYAKALRMAKTCVGSTWCRYGVGDSVGLGVELENRYKGIRTPHKMKFGVSGCTRECSEAQGKDVGIIATEKGWNLYVCGNGGMKPRHADLLAADIDRETLIKYLDRFMMFYIRTADKLTRTAPWLENLEGGIDYLKAVIIDDKLGLNAHLEEEMARLREAVLCEWTETVNTPSAQTRFKHFINSDKRDPNVQMVPEREQHRPATPYERIPVTLVEDNA |  |  |  |  |  | 6.11 | 5.71 | 6.72 |  |  |  |  |
| MREAFICDGIRTPIGRYGGALSSVRADDLAAIPLRELLVRNPRLDAECIDDVILGCANQAGEDNRNVARMATLLAGLPQSVSGTTINRLCGSGLDALGFAARAIKAGDGDLLIAGGVESMSRAPFVMGKAASAFSRQAEMFDTTIGWRFVNPLMAQQFGTDSMPETAENVAELLKISREDQDSFALRSQQRTAKAQSSGILAEEIVPVVLKNKKGVVTEIQHDEHLRPETTLEQLRGLKAPFRANGVITAGNASGVNDGAAALIIASEQMAAAQGLTPRARIVAMATAGVEPRLMGLGPVPATRRVLERAGLSIHDMDVIELNEAFAAQALGVLRELGLPDDAPHVNPNGGAIALGHPLGMSGARLALAASHELHRRNGRYALCTMCIGVGQGIAMILERV [P0C7L2] |  | 8.63 ± 0.14 | 2.77 ± 0.17 | 3.37 ± 0.079 | 4.76 ± 0.58 | 3.42 |  |  | 2.17 | 4.99 ± 1.1 |  |  |
| MSIKLIAVDMDGTFLSDQKTYNRERFMAQYQQMKAQGIRFVVASGNQYYQLISFFPEIANEIAFVAENGGWVVSEGKDVFNGELSKDAFATVVEHLLTRPEVEIIACGKNSAYTLKKYDDAMKTVAEMYYHRLEYVDNFDNLEDIFFKFGLNLSDELIPQVQKALHEAIGDIMVSVHTGNGSIDLIIPGVHKANGLRQLQKLWGIDDSEVVVFGDGGNDIEMLRQAGFSFAMENAGSAVVAAAKYRAGSNNREGVLDVIDKVLKHEAPFDQ | 1.92 ± 0.13 | 7.59 ± 3.2 | 2.44 ± 0.25 | 3.96 ± 0.16 | 6.88 ± 0.18 | 4.81 ± 0.67 | 2.026 ± 0.013 | 2.73 ± 0.66 | 2.53 ± 0.083 | 2.7 ± 0.7 | 1.78 ± 0.4 | 2.08 ± 0.059 |
| MSVRLVLAKGREKSLLRRHPWVFSGAVARMEGKASLGETIDIVDHQGKWLARGAYSPASQIRARVWTFDPSESIDIAFFSRRLQQAQKWRDWLAQKDGLDSYRLIAGESDGLPGITIDRFGNFLVLQLLSAGAEYQRAALISALQTLYPECSIYDRSDVAVRKKEGMELTQGPVTGELPPALLPIEEHGMKLLVDIQHGHKTGYYLDQRDSRLATRRYVENKRVLNCFSYTGGFAVSALMGGCSQVVSVDTSQEALDIARQNVELNKLDLSKAEFVRDDVFKLLRTYRDRGEKFDVIVMDPPKFVENKSQLMGACRGYKDINMLAIQLLNEGGILLTFSCSGLMTSDLFQKIIADAAIDAGRDVQFIEQFRQAADHPVIATYPEGLYLKGFACRVM | 5.25 ± 0.27 | 13.1 ± 1.7 | 3.02 ± 0.1 | 6.57 ± 0.19 | 11.32 ± 0.082 | 5.39 ± 0.22 | 5.51 ± 0.19 | 11.3 ± 1.5 | 6.51 ± 0.56 | 6.28 ± 1.2 | 5.55 ± 0.16 | 6.03 ± 0.6 |
| MKYVFIEKHQAEFSIKAMCRVLRVARSGWYTWCQRRTRISTRQQFRQHCDSVVLAAFTRSKQRYGAPRLTDELRAQGYPFNVKTVAASLRRQGLRAKASRKFSPVSYRAHGLPVSENLLEQDFYASGPNQKWAGDITYLRTDEGWLYLAVVIDLWSRAVIGWSMSPRMTAQLACDALQMALWRRKRPRNVIVHTDRGGQYCSADYQAQLKRHNLRGSMSAKGCCYDNACVESFFHSLKVECIHGEHFISREIMRATVFNYIECDYNRWRRHSWCGGLSPEQFENKNLA [P0CF81] |  |  |  |  |  | 5.16 ± 0.69 |  |  |  |  |  |  |
| MKMLRDPLFWLIALFVALIFWLPYSQPLFAALFPQLPRPVYQQESFAALALAHFWLVGISSLFAVIIGTGAGIAVTRPWGAEFRPLVETIAAVGQTFPPVAVLAIAVPVIGFGLQPAIIALILYGVLPVLQATLAGLGAIDASVTEVAKGMGMSRGQRVRKVELPLAAPVILAGVRTSVIINIGTATIASTVGASTLGTPIIIGLSGFNTAYVIQGALLVALAAIIADRLFERLVQALSQHAK |  |  |  |  |  |  |  | 5.89 |  |  |  |  |
| MKQPAPVYQRIAGHQWRHIWLSGDIHGCLEQLRRKLWHCRFDPWRDLLISVGDVIDRGPQSLRCLQLLEQHWVCAVRGNHEQMAMDALASQQMSLWLMNGGDWFIALADNQQKQAKTALEKCQHLPFILEVHSRTGKHVIAHADYPDDVYEWQKDVDLHQVLWSRSRLGERQKGQGITGADHFWFGHTPLRHRVDIGNLHYIDTGAVFGGELTLVQLQ |  | 5.48 |  |  |  |  |  |  |  |  |  |  |
| MRWQGRRESDNVEDRRNSSGGPSMGGPGFRLPSGKGGLILLIVVLVAGYYGVDLTGLMTGQPVSQQQSTRSISPNEDEAAKFTSVILATTEDTWGQQFEKMGKTYQQPKLVMYRGMTRTGCGAGQSIMGPFYCPADGTVYIDLSFYDDMKDKLGADGDFAQGYVIAHEVGHHVQKLLGIEPKVRQLQQNATQAEVNRLSVRMELQADCFAGVWGHSMQQQGVLETGDLEEALNAAQAIGDDRLQQQSQGRVVPDSFTHGTSQQRYSWFKRGFDSGDPAQCNTFGKSI | 4.87 ± 0.34 | 8.39 ± 3.7 | 2.861 ± 0.027 | 5.19 ± 0.22 | 7.6 ± 3 | 5.3 ± 0.69 | 6.06 ± 0.32 | 11.2 ± 2 |  | 3.37 ± 0.57 | 5.36 ± 0.17 | 5.54 ± 0.5 |
| MKRLHKRFLLATFCALFTATLQAADVTITVNGRVVAKPCTIQTKEANVNLGDLYTRNLQQPGSASGWHNITLSLTDCPVETSAVTAIVTGSTDNTGYYKNEGTAENIQIELRDDQDAALKNGDSKTVIVDEITRNAQFPLKARAITVNGNASQGTIEALINVIYTWQ | 5.55 |  |  |  |  |  |  |  |  |  |  |  |
| MLKRYLVLSVATAAFSLPSLVNAAQQNILSVHILNQQTGKPAADVTVTLEKKADNGWLQLNTAKTDKDGRIKALWPEQTATTGDYRVVFKTGDYFKKQNLESFFPEIPVEFHINKVNEHYHVPLLLSQYGYSTYRGS |  | 8.8 ± 0.6 | > 4 |  | 7.94 ± 2 | 5.28 ± 1.2 | 5.47 ± 0.54 | 8.97 ± 0.37 | 5.8 ± 0.16 | 4.42 ± 0.68 | 5.53 | 5.83 ± 0.21 |
| MKLLIVEDEKKTGEYLTKGLTEAGFVVDLADNGLNGYHLAMTGDYDLIILDIMLPDVNGWDIVRMLRSANKGMPILLLTALGTIEHRVKGLELGADDYLVKPFAFAELLARVRTLLRRGAAVIIESQFQVADLMVDLVSRKVTRSGTRITLTSKEFTLLEFFLRHQGEVLPRSLIASQVWDMNFDSDTNAIDVAVKRLRGKIDNDFEPKLIQTVRGVGYMLEVPDGQ [P0ACZ8] | 3.77 ± 0.45 | 9.01 ± 0.29 | 2.77 ± 0.42 | 5.62 ± 0.89 | 8.61 ± 0.84 | 5.08 ± 1 | 4.18 ± 0.13 | 7.44 ± 0.99 | 4.738 ± 0.0044 | 4.5 ± 0.3 | 4.01 ± 0.29 | 4.53 ± 0.78 |
| MGLFDKLKSLVSDDKKDTGTIEIIAPLSGEIVNIEDVPDVVFAEKIVGDGIAIKPTGNKMVAPVDGTIGKIFETNHAFSIESDSGVELFVHFGIDTVELKGEGFKRIAEEGQRVKVGDTVIEFDLPLLEEKAKSTLTPVVISNMDEIKELIKLSGSVTVGETPVIRIKK | 4.415 ± 0.029 | 11.1 ± 0.48 | 3.29 ± 0.1 | 5.34 ± 0.22 | 10.6 ± 1.7 | 5.14 ± 0.12 | 4.93 ± 0.37 | 7.87 ± 0.1 | 4.82 ± 0.3 | 5.64 ± 0.17 | 4.53 ± 0.15 | 4.48 ± 0.28 |
| MSTTNHDHHIYVLMGVSGSGKSAVASEVAHQLHAAFLDGDFLHPRRNIEKMASGEPLNDDDRKPWLQALNDAAFAMQRTNKVSLIVCSALKKHYRDLLREGNPNLSFIYLKGDFDVIESRLKARKGHFFKTQMLVTQFETLQEPGADETDVLVVDIDQPLEGVVASTIEVIKKGK | 4.121 ± 0.011 | 9.14 ± 0.42 | 3.02 ± 0.08 | > 8 | 8.67 | 5.07 ± 0.67 | 4.474 ± 0.042 | 6.38 ± 0.14 |  | 4.1 | 4.01 | 3.92 ± 0.44 |
| MAISIKTPEDIEKMRVAGRLAAEVLEMIEPYVKPGVSTGELDRICNDYIVNEQHAVSACLGYHGYPKSVCISINEVVCHGIPDDAKLLKDGDIVNIDVTVIKDGFHGDTSKMFIVGKPTIMGERLCRITQESLYLALRMVKPGINLREIGAAIQKFVEAEGFSVVREYCGHGIGRGFHEEPQVLHYDSRETNVVLKPGMTFTIEPMVNAGKKEIRTMKDGWTVKTKDRSLSAQYEHTIVVTDNGCEILTLRKDDTIPAIISHDE [P0AE18] | 4.36 ± 0.17 | 12.19 ± 0.095 | 3.53 ± 0.17 | 5.52 ± 0.18 | 10.4 ± 0.64 | 5.22 ± 1 | 4.545 ± 0.041 | 6.93 ± 0.49 | 5.3 ± 0.74 | 6.04 ± 0.15 | 4.71 ± 0.14 | 4.42 ± 0.58 |
